Test results as given in PMC4060006, “SM proteins Sly1 and Vps33 co-assemble with Sec17 and SNARE complexes to oppose SNARE disassembly by Sec18” (eLife, 2014).

B1: Sly1 (full length, aa1-667) (natural protein, S. cerevisiae, UniProt P22213 1-666, looked up)
chain: MAVEEIASRKDISLRDMQISAILKMLFLNKDLNNNDNITTITDDIFNQQEIIWKVLILDIKSTATISSVLRVNDLLKAGITVHSLIKQDRSPLPDVPAIYFVSPTKENIDIIVNDLKSDKYSEFYINFTSSLPRNLLEDLAQQVSITGKSDKIKQVYDQYLDFIVTEPELFSLEISNAYLTLNDPKTTEEEITGLCANIADGLFNTVLTINSIPIIRAAKGGPAEIIAEKLGTKLRDFVINTNSSSTSTLQGNDSLERGVLIILDRNIDFASMFSHSWIYQCMVFDIFKLSRNTVTIPLESKENGTDNTTAKPLATKKYDIEPNDFFWMENSHLPFPEAAENVEAALNTYKEEAAEITRKTGVTNISDLDPNSNNDTVQIQEVVKKLPELTAKKNTIDTHMNIFAALLSQLESKSLDTFFEVEQDPGSTKTRSRFLDILKDGKTNNLEDKLRSFIVLYLTSTTGLPKDFVQNVENYFKENDYDINALKYVYKLREFMQLSNMSLQNKSLEDGSDSAFKPSNLTLSGIYGLTEGKLQGGVGSLISGIKKLLPEKKTIPITNVVDAIMDPLNSSQKNLETTDSYLYIDPKITRGSHTRKPKRQSYNKSLVFVVGGGNYLEYQNLQEWAHSQLHNPKKVMYGSTAITTPAEFLNEISRLGASNSSNNDA
notes: Sly1, Golgi SM protein, S. cerevisiae, printed as full-length aa1-667; construct His6-(tev)-Sly1; as I recall the UniProt entry has 666 residues; the printed 667 may count the stop codon; also called His6-Sly1; Golgi SM protein; source: E. coli (pRIL plasmid), purified (Ni-NTA)

Legend:
Details in all cases: both partners purified
[1] = molecular target: T1, Sec17–Golgi SNARE complex (Sec17 bound to the Golgi SNARE complex on GST-Sed5 SNARE domain) (S. cerevisiae, UniProt Q01590 170-319; P25385 1-222; P22804 1-123; P22214 1-188; P32602 1-292); test: pull-down; stoichiometry: complexes assembled on immobilised SNARE complex under saturation binding conditions; SDS-PAGE, SYPRO Ruby, band intensities against standard curves of the purified proteins; apparent
T1 construct: Sed5, Qa-SNARE, S. cerevisiae, aa170-319; Bos1, Qb-SNARE, S. cerevisiae, aa1-222; Bet1, Qc-SNARE, S. cerevisiae, aa1-123; Sec22, R-SNARE, S. cerevisiae, aa1-188; Sec17, S. cerevisiae; in most experiments Sec17 and Sly1 were added together to the immobilised SNARE complex; also called SNARE-Sec17 complex; Sec17–SNARE complex; source: assembled on …
T1 sequence (looked up) 1: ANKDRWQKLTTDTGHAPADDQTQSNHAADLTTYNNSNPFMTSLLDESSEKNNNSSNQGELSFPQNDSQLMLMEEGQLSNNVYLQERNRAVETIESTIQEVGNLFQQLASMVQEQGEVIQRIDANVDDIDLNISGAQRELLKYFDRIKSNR
T1 sequence (looked up) 2: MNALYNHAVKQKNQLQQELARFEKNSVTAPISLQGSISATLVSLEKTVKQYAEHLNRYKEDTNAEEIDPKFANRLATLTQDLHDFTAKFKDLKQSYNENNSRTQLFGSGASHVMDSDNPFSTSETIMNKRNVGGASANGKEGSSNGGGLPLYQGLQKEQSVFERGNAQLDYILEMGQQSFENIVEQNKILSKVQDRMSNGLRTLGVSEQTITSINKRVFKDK
T1 sequence (looked up) 3: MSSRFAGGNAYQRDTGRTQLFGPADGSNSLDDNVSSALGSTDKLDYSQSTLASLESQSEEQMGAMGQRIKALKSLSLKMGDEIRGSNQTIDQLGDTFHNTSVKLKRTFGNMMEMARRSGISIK
T1 sequence (looked up) 4: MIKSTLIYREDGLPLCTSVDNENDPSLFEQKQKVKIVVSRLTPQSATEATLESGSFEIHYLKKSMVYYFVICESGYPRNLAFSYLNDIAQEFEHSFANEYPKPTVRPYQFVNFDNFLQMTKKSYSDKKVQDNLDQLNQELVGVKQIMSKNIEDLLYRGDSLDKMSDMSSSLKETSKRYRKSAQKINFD
T1 sequence (looked up) 5: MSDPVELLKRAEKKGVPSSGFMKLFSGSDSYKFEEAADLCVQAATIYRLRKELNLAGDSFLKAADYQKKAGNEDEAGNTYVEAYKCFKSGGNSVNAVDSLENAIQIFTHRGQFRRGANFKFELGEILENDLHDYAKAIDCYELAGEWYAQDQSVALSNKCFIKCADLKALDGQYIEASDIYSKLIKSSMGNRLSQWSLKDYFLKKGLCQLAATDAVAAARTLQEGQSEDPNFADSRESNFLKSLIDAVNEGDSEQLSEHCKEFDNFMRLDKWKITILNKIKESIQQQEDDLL

[2] = molecular target: T1, Sec17–Golgi SNARE complex (Sec17 bound …); test: pull-down; quantitative: immobilised SNARE complex, SM concentration varied, with or without Sec17, 30°C; SYPRO Ruby with standard curves; fractional saturation against free SM, one-site model; apparent (Kdobs), non-equilibrium measurements
[3] = molecular target: B1; test: pull-down; full cytoplasmic domain of Sed5 (GST-Sed5FL, 500 nM) immobilised without assembled SNARE complex; Sly1 (10 µM) and Sec17; 30°C; Coomassie
[4] = molecular target: T2, Golgi SNARE complex assembled on immobilized GST-Sed5 SNARE domain (S. cerevisiae, UniProt Q01590 170-319; P25385 1-222; P22804 1-123; P22214 1-188); test: pull-down; stoichiometry: complexes assembled on immobilised SNARE complex under saturation binding conditions; SDS-PAGE, SYPRO Ruby, band intensities against standard curves of the purified proteins; apparent
T2 construct: Sed5, Qa-SNARE, S. cerevisiae, aa170-319; Bos1, Qb-SNARE, S. cerevisiae, aa1-222; Bet1, Qc-SNARE, S. cerevisiae, aa1-123; Sec22, R-SNARE, S. cerevisiae, aa1-188; quaternary SNARE bundle, no membranes; also called Golgi SNARE bundle; S.C; source: assembled on glutathione sepharose from proteins made in E. coli; not shown: GST, N-terminal, kept; His6, N-terminal, …
T2 sequence (looked up) 1: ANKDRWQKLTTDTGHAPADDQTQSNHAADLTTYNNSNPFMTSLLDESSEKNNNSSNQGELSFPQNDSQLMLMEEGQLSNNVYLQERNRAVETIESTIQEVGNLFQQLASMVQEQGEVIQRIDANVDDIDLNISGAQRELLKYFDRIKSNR
T2 sequence (looked up) 2: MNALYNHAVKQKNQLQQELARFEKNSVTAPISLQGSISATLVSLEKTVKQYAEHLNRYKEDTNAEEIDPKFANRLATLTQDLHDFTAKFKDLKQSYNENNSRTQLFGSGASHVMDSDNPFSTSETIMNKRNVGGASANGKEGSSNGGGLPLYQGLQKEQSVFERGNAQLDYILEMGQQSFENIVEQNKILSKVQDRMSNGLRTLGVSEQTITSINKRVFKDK
T2 sequence (looked up) 3: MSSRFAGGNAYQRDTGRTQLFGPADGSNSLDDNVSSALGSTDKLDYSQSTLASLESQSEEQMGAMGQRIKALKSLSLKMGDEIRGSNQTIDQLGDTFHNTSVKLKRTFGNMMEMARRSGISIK
T2 sequence (looked up) 4: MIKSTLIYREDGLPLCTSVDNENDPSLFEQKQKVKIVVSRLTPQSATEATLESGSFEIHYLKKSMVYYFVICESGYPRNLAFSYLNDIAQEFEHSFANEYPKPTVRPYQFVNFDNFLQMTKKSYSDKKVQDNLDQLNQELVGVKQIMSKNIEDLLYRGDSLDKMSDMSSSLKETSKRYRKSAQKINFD

[5] = molecular target: T3, vacuole SNARE complex assembled on immobilized Vam3-GST (S. cerevisiae, UniProt Q12241 1-264; Q04338 1-194; P32912 190-316; Q12255 1-231); test: as above
T3 construct: Vam3, Qa-SNARE, S. cerevisiae, aa1-264; Vti1, Qb-SNARE, S. cerevisiae, aa1-194; Vam7, Qc-SNARE, S. cerevisiae, SNARE domain aa190-316; Nyv1, R-SNARE, S. cerevisiae, aa1-231; quaternary SNARE bundle, no membranes; also called vacuolar SNARE complex; SNARE bundle; source: assembled on glutathione sepharose from proteins made in E. coli; not shown: GST, C-terminal, …
T3 sequence (Q12241 1-264, chain 1 of 4): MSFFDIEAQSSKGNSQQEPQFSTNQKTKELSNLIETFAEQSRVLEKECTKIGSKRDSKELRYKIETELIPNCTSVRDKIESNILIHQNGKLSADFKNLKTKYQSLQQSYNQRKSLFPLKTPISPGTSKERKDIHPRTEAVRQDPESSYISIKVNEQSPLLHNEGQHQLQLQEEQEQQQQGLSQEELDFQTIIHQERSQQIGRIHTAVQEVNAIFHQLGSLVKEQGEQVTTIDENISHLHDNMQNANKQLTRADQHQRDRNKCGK
T3 sequence (Q04338 1-194, chain 2 of 4): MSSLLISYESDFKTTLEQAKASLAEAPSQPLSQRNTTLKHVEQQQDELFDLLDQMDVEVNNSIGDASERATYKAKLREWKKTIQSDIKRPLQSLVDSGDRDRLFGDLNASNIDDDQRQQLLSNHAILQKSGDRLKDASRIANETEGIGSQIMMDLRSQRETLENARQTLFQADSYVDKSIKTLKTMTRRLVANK
T3 sequence (P32912 190-316, chain 3 of 4): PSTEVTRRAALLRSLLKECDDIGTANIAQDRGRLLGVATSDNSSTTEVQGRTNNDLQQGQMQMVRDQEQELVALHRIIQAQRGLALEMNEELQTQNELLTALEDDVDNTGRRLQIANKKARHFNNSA
T3 sequence (Q12255 1-231, chain 4 of 4): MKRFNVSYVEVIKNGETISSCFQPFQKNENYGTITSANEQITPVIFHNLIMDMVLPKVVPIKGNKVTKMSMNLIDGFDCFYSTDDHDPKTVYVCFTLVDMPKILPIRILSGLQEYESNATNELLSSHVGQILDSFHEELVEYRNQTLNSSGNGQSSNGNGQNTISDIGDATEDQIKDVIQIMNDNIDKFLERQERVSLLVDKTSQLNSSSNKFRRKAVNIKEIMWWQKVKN

[6] = molecular target: T4, Sec17–vacuole SNARE complex (Sec17 bound to the vacuole SNARE complex on Vam3-GST) (S. cerevisiae, UniProt Q12241 1-264; Q04338 1-194; P32912 190-316; Q12255 1-231; P32602 1-292); test: as above
T4 construct: Vam3, Qa-SNARE, S. cerevisiae, aa1-264; Vti1, Qb-SNARE, S. cerevisiae, aa1-194; Vam7, Qc-SNARE, S. cerevisiae, SNARE domain aa190-316; Nyv1, R-SNARE, S. cerevisiae, aa1-231; Sec17, S. cerevisiae; in most experiments Sec17 and the SM were added together to the immobilised SNARE complex; also called SNARE–Sec17 complex; Sec17–SNARE complex; source: assembled …
T4 sequence (Q12241 1-264, chain 1 of 4): as the sequence (Q12241 1-264, chain 1 of 4) above
T4 sequence (Q04338 1-194, chain 2 of 4): as the sequence (Q04338 1-194, chain 2 of 4) above
T4 sequence (P32912 190-316, chain 3 of 4): as the sequence (P32912 190-316, chain 3 of 4) above
T4 sequence (Q12255 1-231, chain 4 of 4): as the sequence (Q12255 1-231, chain 4 of 4) above

[7] = molecular target: T4, Sec17–vacuole SNARE complex (Sec17 …); test: pull-down; quantitative: immobilised SNARE complex, SM concentration varied, with or without Sec17, 30°C; SYPRO Ruby with standard curves; fractional saturation against free SM, one-site model; apparent (Kdobs), non-equilibrium measurements
[8] = molecular target: T3, vacuole SNARE complex assembled on …; test: as above

Which results are given for B1?
stoichiometry N [1]: 1 Sly1 per SNARE complex; Kd [2]: 1000 ± 100 nM

B2: GST-Sed5 full cytoplasmic domain (aa1-319) (domain or fragment, S. cerevisiae, UniProt Q01590 1-319, looked up)
chain: MNIKDRTSEFQQSVLSYKKRNKNFREQQRERLQEKESENFANNTTGNGKSVSEFQKKASGIAHEISSTAQLLSKLAVLAKRKPMFNDNPVEIAELSFLIKRKIYAIEQSLVQLSQLKKTDVNGNTSNQSSKQPSAVQHSKNVVNLLNTQMKNISGSFKDVLEERQRLEMANKDRWQKLTTDTGHAPADDQTQSNHAADLTTYNNSNPFMTSLLDESSEKNNNSSNQGELSFPQNDSQLMLMEEGQLSNNVYLQERNRAVETIESTIQEVGNLFQQLASMVQEQGEVIQRIDANVDDIDLNISGAQRELLKYFDRIKSNR
notes: Sed5, Golgi Qa-SNARE, S. cerevisiae, full cytoplasmic domain aa1-319 with N-peptide and Habc segments, no transmembrane domain; also called GST-Sed5FL; Sed5FL; not shown: GST, N-terminal, kept
Does B2 bind [3]?
Result: binds

B3: Sec17 (natural protein, S. cerevisiae, UniProt P32602 1-292, looked up)
chain: MSDPVELLKRAEKKGVPSSGFMKLFSGSDSYKFEEAADLCVQAATIYRLRKELNLAGDSFLKAADYQKKAGNEDEAGNTYVEAYKCFKSGGNSVNAVDSLENAIQIFTHRGQFRRGANFKFELGEILENDLHDYAKAIDCYELAGEWYAQDQSVALSNKCFIKCADLKALDGQYIEASDIYSKLIKSSMGNRLSQWSLKDYFLKKGLCQLAATDAVAAARTLQEGQSEDPNFADSRESNFLKSLIDAVNEGDSEQLSEHCKEFDNFMRLDKWKITILNKIKESIQQQEDDLL
notes: Sec17, S. cerevisiae; construct CBD-(intein)-Sec17 in pTYB12; an intein tag is as a rule cut off during purification; also called α-SNAP homolog; Sec18 adapter; source: E. coli (pRIL plasmid), purified
For B3, which “stoichiometry N” value [4] is on record?
Its value is 3 Sec17 per SNARE complex.

And the “stoichiometry N” value [5]?
The value was 3 Sec17 per SNARE complex.

B4: Vps33 (natural protein, S. cerevisiae, UniProt P20795 1-691, looked up)
chain: MNRFWNTKKFSLTNADGLCATLNEISQNDEVLVVQPSVLPVLNSLLTFQDLTQSTPVRKITLLDDQLSDDLPSALGSVPQMDLIFLIDVRTSLRLPPQLLDAAQKHNLSSLHIIYCRWKPSFQNTLEDTEQWQKDGFDLNSKKTHFPNVIESQLKELSNEYTLYPWDLLPFPQIDENVLLTHSLYNMENVNMYYPNLRSLQSATESILVDDMVNSLQSLIFETNSIITNVVSIGNLSKRCSHLLKKRIDEHQTENDLFIKGTLYGERTNCGLEMDLIILERNTDPITPLLTQLTYAGILDDLYEFNSGIKIKEKDMNFNYKEDKIWNDLKFLNFGSIGPQLNKLAKELQTQYDTRHKAESVHEIKEFVDSLGSLQQRQAFLKNHTTLSSDVLKVVETEEYGSFNKILELELEILMGNTLNNDIEDIILELQYQYEVDQKKILRLICLLSLCKNSLREKDYEYLRTFMIDSWGIEKCFQLESLAELGFFTSKTGKTDLHITTSKSTRLQKEYRYISQWFNTVPIEDEHAADKITNENDDFSEATFAYSGVVPLTMRLVQMLYDRSILFHNYSSQQPFILSREPRVSQTEDLIEQLYGDSHAIEESIWVPGTITKKINASIKSNNRRSIDGSNGTFHAAEDIALVVFLGGVTMGEIAIMKHLQKILGKKGINKRFIIIADGLINGTRIMNSIS
notes: Vps33, SM protein of the vacuole, S. cerevisiae; also called vacuole SM protein; late endolysosomal SM; source: insect cells, Baculovirus system, purified
B4 was tested. Which “stoichiometry N” value [6] did it give?
The value was 1 Vps33 per SNARE complex.

And the Kd [7]?
Its Kd is 300 ± 10 nM.

And the Kd [8]?
Its Kd is 1600 ± 100 nM.
